The data set deals with the molecule itself. Put plainly: SEC; size exclusion profile of recombinant NiNTA purified 6X HIS SUMO proteins on a SD75 column, void volume 40.25 ml; AtSUMO3 and AtSUMO5 after refolding.

B1: 6X HIS tagged AtSUMO3, recombinant, refolded (natural protein, Arabidopsis thaliana, UniProt Q9FLP5 1-111, looked up)
chain: MSNPQDDKPIDQEQEAHVILKVKSQDGDEVLFKNKKSAPLKKLMYVYCDRRGLKLDAFAFIFNGARIGGLETPDELDMEDGDVIDACRAMSGGLRANQRQWSYMLFDHNGL
notes: 15N-labelled; not shown: His6, N-terminal, kept
Consider B1, for which the binding result is given as “binds”.

B2: 6X HIS tagged AtSUMO5, recombinant, refolded (natural protein, Arabidopsis thaliana, UniProt Q8VZI7 1-108, looked up)
chain: MVSSTDTISASFVSKKSRSPETSPHMKVTLKVKNQQGAEDLYKIGTHAHLKKLMSAYCTKRNLDYSSVRFVYNGREIKARQTPAQLHMEEEDEICMVMELGGGGPYTP
notes: as for B1
B2: the binding result is “binds”.

The values above are taken from PMC7461331, “Stability of Begomoviral pathogenicity determinant βC1 is modulated by mutually antagonistic SUMOylation and SIM interactions” (BMC Biology, 2020).
